What all share (conditions): Sus scrofa
The test system of data set [1] is NCc1csc(C(=O)O)c1. The experiment in a line: (§1) Activity of pig GABA aminotransferase using alpha-ketoglutarate as substrate after 16 hrs by Hanes-Woolf plot analysis.
Data set [2] relates to NCc1ccc(C(=O)O)s1. Described as §1.
Data set [3] concerns NCc1cocc1C(=O)O. Described as §1.
Data set [4] concerns NCc1ccc(C(=O)O)o1. The data set is described as §1.
Data set [5] relates to NCc1ccc(C(=O)O)[nH]1. The description is as §1.
In data set [6] the test system is NCc1c[nH]c(C(=O)O)c1. The description is as §1.
Data set [7] deals with NCc1coc(C(=O)O)c1. Described as §1.
Data set [8] has as its system NCc1cscc1C(=O)O. The description is as §1.
For data set [9], the system named is NCc1csc(C(=O)O)c1. The experiment in a line: (§2) Ratio of Kcat to Km for pig GABA aminotransferase.
The subject of data set [10] is NCc1ccc(C(=O)O)s1. Described as §2.
In data set [11] the test system is NCc1cocc1C(=O)O. The data set is described as §2.
The test system of data set [12] is NCc1ccc(C(=O)O)o1. The description is as §2.
Data set [13] deals with NCc1ccc(C(=O)O)[nH]1. The data set is described as §2.
The test system of data set [14] is NCc1c[nH]c(C(=O)O)c1. The description is as §2.
Data set [15] concerns NCc1coc(C(=O)O)c1. The description is as §2.

Usually Km stands for the substrate concentration at which the rate is half of its maximum. As usually defined, the kcat/Km is the turnover number divided by the Michaelis constant.

Chain of 4-aminobutyrate aminotransferase, mitochondrial (Sus scrofa), P80147 (P80147 whole entry): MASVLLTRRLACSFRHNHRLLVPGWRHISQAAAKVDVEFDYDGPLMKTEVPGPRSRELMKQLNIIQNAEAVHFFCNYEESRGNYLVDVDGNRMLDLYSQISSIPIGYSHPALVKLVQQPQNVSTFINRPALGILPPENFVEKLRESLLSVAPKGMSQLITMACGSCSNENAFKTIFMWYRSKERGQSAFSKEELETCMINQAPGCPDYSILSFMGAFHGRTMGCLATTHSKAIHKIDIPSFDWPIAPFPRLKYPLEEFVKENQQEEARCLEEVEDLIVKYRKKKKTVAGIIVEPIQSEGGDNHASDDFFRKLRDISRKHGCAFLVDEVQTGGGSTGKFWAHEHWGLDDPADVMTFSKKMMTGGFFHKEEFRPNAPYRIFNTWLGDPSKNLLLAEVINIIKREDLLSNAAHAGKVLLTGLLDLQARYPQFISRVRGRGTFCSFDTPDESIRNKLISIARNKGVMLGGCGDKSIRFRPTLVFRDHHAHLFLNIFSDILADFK

In the case of “4-aminobutyrate aminotransferase, mitochondrial (Sus scrofa), P80147”, the Km in data set [1] amounted to 1700 µM; in data set [2], 6300 µM; in data set [3], 2800 µM; in [4], 2100 µM; in data set [5], 9500 µM; in [6] it was 1400 µM. For the same substance, the results for the Km in data set [7] and in data set [8] were 310 µM and above 10000 µM, respectively. Moreover, the kcat in data set [1] was 5.2 ×10⁻³ /min; in data set [2] it was 1 ×10⁻² /min; in data set [3] it was 8.3 ×10⁻⁴ /min; in data set [4], 3.4 ×10⁻² /min; in data set [5] it was 1.5 ×10⁻³ /min; in [6], 3.4 ×10⁻³ /min. The kcat in data set [7] was 2.3 ×10⁻³ /min. The kcat/Km in data set [9] was 0.00517 M⁻¹ s⁻¹; in data set [10], 0.0267 M⁻¹ s⁻¹; in data set [11], 0.005 M⁻¹ s⁻¹; in [12], 0.267 M⁻¹ s⁻¹; in data set [13] it was 0.00267 M⁻¹ s⁻¹; in data set [14], 0.04 M⁻¹ s⁻¹. In addition, the kcat/Km in [15] worked out at 0.123 M⁻¹ s⁻¹.
